To fix the notation:
T1: recombinant PKCζ (human, UniProt Q05513 1-592)
T1 construct: also called rec; PKCζ
T1 sequence (looked up): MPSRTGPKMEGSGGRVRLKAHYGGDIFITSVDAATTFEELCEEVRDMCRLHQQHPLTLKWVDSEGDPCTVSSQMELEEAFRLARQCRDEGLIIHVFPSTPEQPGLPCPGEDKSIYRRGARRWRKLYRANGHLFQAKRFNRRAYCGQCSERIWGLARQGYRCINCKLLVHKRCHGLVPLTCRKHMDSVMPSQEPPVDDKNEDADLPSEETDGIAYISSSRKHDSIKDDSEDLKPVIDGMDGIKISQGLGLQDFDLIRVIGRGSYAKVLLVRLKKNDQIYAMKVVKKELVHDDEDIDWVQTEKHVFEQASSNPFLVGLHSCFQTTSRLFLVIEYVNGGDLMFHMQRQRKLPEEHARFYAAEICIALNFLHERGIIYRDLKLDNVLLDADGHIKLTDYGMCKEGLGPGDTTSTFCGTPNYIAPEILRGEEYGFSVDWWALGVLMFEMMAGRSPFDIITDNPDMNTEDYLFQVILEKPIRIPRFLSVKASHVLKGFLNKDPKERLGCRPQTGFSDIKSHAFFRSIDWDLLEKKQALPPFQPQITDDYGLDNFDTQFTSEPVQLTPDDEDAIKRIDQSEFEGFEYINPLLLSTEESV

B1: GST fusion DNMT1 fragment 1374 to 1616 (domain or fragment, human, UniProt P26358 1374-1616, looked up)
chain: LPEVRNGASALEISYNGEPQSWFQRQLRGAQYQPILRDHICKDMSALVAARMRHIPLAPGSDWRDLPNIEVRLSDGTMARKLRYTHHDRKNGRSSSGALRGVCSCVEAGKACDPAARQFNTLIPWCLPHTGNRHNHWAGLYGRLEWDGFFSTTVTNPEPMGKQGRVLHPEQHRVVSVRECARSQGFPDTYRLFGNILDKHRQVGNAVPPPLAKAIGLEIKLCMLAKARESASAKIKEEEAAKD
notes: source: E. coli BL21, purified on glutathione-Sepharose beads
B2: GST fusion DNMT1 fragment 1081 to 1409 (domain or fragment, human, UniProt P26358 1081-1409, looked up)
chain: NRFYFLEAYNAKSKSFEDPPNHARSPGNKGKGKGKGKGKPKSQACEPSEPEIEIKLPKLRTLDVFSGCGGLSEGFHQAGISDTLWAIEMWDPAAQAFRLNNPGSTVFTEDCNILLKLVMAGETTNSRGQRLPQKGDVEMLCGGPPCQGFSGMNRFNSRTYSKFKNSLVVSFLSYCDYYRPRFFLLENVRNFVSFKRSMVLKLTLRCLVRMGYQCTFGVLQAGQYGVAQTRRRAIILAAAPGEKLPLFPEPLHVFAPRACQLSVVVDDKKFVSNITRLSSGPFRTITVRDTMSDLPEVRNGASALEISYNGEPQSWFQRQLRGAQYQPIL
notes: as for B1
B3: GST fusion DNMT1 fragment 1 to 446 (domain or fragment, human, UniProt P26358 1-446, looked up)
chain: MPARTAPARVPTLAVPAISLPDDVRRRLKDLERDSLTEKECVKEKLNLLHEFLQTEIKNQLCDLETKLRKEELSEEGYLAKVKSLLNKDLSLENGAHAYNREVNGRLENGNQARSEARRVGMADANSPPKPLSKPRTPRRSKSDGEAKPEPSPSPRITRKSTRQTTITSHFAKGPAKRKPQEESERAKSDESIKEEDKDQDEKRRRVTSRERVARPLPAEEPERAKSGTRTEKEEERDEKEEKRLRSQTKEPTPKQKLKEEPDREARAGVQADEDEDGDEKDEKKHRSQPKDLAAKRRPEEKEPEKVNPQISDEKDEDEKEEKRRKTTPKEPTEKKMARAKTVMNSKTHPPKCIQCGQYLDDPDLKYGQHPPDAVDEPQMLTNEKLSIFDANESGFESYEALPQHKLTCFSVYCKHGHLCPIDTGLIEKNIELFFSGSAKPIYDDD
notes: DNA methyltransferase 1 (DNMT1), human, amino acids 1-446; also called N-terminal domain (amino acids 1-446) of DNMT1; source: E. coli BL21, purified on glutathione-Sepharose beads

In this assay the target is T1, recombinant PKCζ. The assay can be described thus: pull-down; GST fusion DNMT1 fragments on glutathione beads, pre-incubated with 100 μg/ml BSA; 10 ng recombinant PKCζ, 4°C, one hour; binding buffer 50 mM Tris pH 7.5, 28 μM ZnCl2, 1% Triton X-100, 220 mM NaCl, 10% glycerol; washes with 500 mM NaCl; blot with a PKCζ antibody. The note with it: both partners purified.
Regarding B1, the binding result is recorded as “binds”. As for B2, the entry is “binds”; as for B3, “binds”.

Values taken from publication PMC3118390, “PKC isoforms interact with and phosphorylate DNMT1” (BMC Biology, 2011).
